{
  "source": "patent US20250352667A1",
  "binders": {"B1": {"name": "NRF2 isoform 1 (wild-type full-length), FLAG-tagged (protein)", "chain": "MMDLELPPPGLPSQQDMDLIDILWRQDIDLGVSREVFDFSQRRKEYELEKQKKLEKERQEQLQKEQEKAFFAQLQLDEETGEFLPIQPAQHIQSETSGSANYSQVAHIPKSDALYFDDCMQLLAQTFPFVDDNEVSSATFQSLVPDIPGHIESPVFIATNQAQSPETSVAQVAPVDLDGMQQDIEQVWEELLSIPELQCLNIENDKLVETTMVPSPEAKLTEVDNYHFYSSIPSMEKEVGNCSPHFLNAFEDSFSSILSTEDPNQLTVNSLNSDATVNTDFGDEFYSAFIAEPSISNSMPSPATLSHSLSELLNGPIDVSDLSLCKAFNQNHPESTAEFNDSDSGISLNTSPSVASPEHSVESSSYGDTLLGLSDSEVEELDSAPGSVKQNGPKTPVHSSGDMVQPLSPSQGQSTHVHDAQCENTPEKELPVSPGHRKTPFTKDKHSSRLEAHLTRDELRAKALHIPFPVEKIINLPVVDFNEMMSKEQFNEAQLALIRDIRRRGKNKVAAQNCRKRKLENIVELEQDLDHLKDEKEKLLKEKGENDKSLHLLKKQLSTLYLEVFSMLRDEDGKPYSPSEYSLQQTRDGNVFLVPKSKKPDVKKN"}, "B2": {"name": "NRF2 isoform 1 (I28V full-length), FLAG-tagged (protein)", "chain": "B1 chain with I28V"}, "B3": {"name": "NRF2 isoform 1 (I86V full-length), FLAG-tagged (protein)", "chain": "B1 chain with I86V"}, "B4": {"name": "NRF2 isoform 1 (Q75R full-length), FLAG-tagged (protein)", "chain": "B1 chain with Q75R"}},
  "key": {"[1]": {"target": "KEAP1 (wild-type full-length), His-tagged (human) (UniProt Q14145)", "sequence (Q14145 2-624 limits assumed)": "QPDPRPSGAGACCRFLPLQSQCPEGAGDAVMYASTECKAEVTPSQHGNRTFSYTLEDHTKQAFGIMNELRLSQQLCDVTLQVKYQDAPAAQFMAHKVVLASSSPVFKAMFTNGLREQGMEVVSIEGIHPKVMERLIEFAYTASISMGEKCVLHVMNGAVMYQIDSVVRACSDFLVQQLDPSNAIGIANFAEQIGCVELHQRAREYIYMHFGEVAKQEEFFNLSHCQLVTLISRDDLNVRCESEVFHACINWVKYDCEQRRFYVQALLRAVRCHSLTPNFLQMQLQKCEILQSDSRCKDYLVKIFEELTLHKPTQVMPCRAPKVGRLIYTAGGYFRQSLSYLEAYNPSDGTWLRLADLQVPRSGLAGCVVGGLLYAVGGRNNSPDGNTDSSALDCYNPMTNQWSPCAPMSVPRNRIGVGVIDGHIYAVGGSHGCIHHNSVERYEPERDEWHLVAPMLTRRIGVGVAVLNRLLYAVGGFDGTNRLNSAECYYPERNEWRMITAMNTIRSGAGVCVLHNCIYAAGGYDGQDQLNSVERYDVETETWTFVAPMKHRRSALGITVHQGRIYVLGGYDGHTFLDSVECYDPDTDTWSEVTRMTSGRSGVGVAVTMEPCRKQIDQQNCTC", "test": "AlphaScreen; 4.8 nM FLAG-NRF2, 150 nM His-KEAP1; Rep 2; control for I28V"}, "[2]": {"target": "KEAP1 (wild-type full-length), His-tagged (human) (UniProt Q14145)", "test": "AlphaScreen; 38.4 nM FLAG-NRF2, 150 nM His-KEAP1; Rep 1; control for I28V"}, "[3]": {"target": "KEAP1 (wild-type full-length), His-tagged (human) (UniProt Q14145)", "test": "AlphaScreen; 307.2 nM FLAG-NRF2, 150 nM His-KEAP1; Rep 1; control for I28V"}, "[4]": {"target": "KEAP1 (wild-type full-length), His-tagged (human) (UniProt Q14145)", "test": "AlphaScreen; 153.6 nM FLAG-NRF2, 150 nM His-KEAP1; Rep 2; control for I86V"}, "[5]": {"target": "KEAP1 (wild-type full-length), His-tagged (human) (UniProt Q14145)", "test": "AlphaScreen; 614.4 nM FLAG-NRF2, 150 nM His-KEAP1; Rep 3; control for I86V"}, "[6]": {"target": "KEAP1 (wild-type full-length), His-tagged (human) (UniProt Q14145)", "test": "AlphaScreen; 9.6 nM FLAG-NRF2, 150 nM His-KEAP1; Repeat 2 (same value as in Table 26)"}, "[7]": {"target": "KEAP1 (wild-type full-length), His-tagged (human) (UniProt Q14145)", "test": "AlphaScreen; 19.2 nM FLAG-NRF2, 150 nM His-KEAP1; Repeat 1 (same value as in Table 26)"}, "[8]": {"target": "KEAP1 (wild-type full-length), His-tagged (human) (UniProt Q14145)", "test": "AlphaScreen; FLAG-NRF2 wt isoform 1 2.4 nM, His-KEAP1 150 nM; Rep 2; positive control for Q75R"}, "[9]": {"target": "KEAP1 (wild-type full-length), His-tagged (human) (UniProt Q14145)", "test": "AlphaScreen; FLAG-NRF2 wt isoform 1 38.4 nM, His-KEAP1 150 nM; Rep 1; positive control for Q75R"}, "[10]": {"target": "KEAP1 (wild-type full-length), His-tagged (human) (UniProt Q14145)", "test": "AlphaScreen; FLAG-NRF2 wt isoform 1 307.2 nM, His-KEAP1 150 nM; Rep 1; positive control for Q75R"}, "[11]": {"target": "KEAP1 (wild-type full-length), His-tagged (human) (UniProt Q14145)", "test": "AlphaScreen; 9.6 nM FLAG-NRF2, 150 nM His-KEAP1; Rep 1"}, "[12]": {"target": "KEAP1 (wild-type full-length), His-tagged (human) (UniProt Q14145)", "test": "AlphaScreen; 38.4 nM FLAG-NRF2, 150 nM His-KEAP1; Rep 1"}, "[13]": {"target": "KEAP1 (wild-type full-length), His-tagged (human) (UniProt Q14145)", "test": "AlphaScreen; 76.8 nM FLAG-NRF2, 150 nM His-KEAP1; Rep 1"}, "[14]": {"target": "KEAP1 (wild-type full-length), His-tagged (human) (UniProt Q14145)", "test": "AlphaScreen; 307.2 nM FLAG-NRF2, 150 nM His-KEAP1; Rep 2"}, "[15]": {"target": "KEAP1 (wild-type full-length), His-tagged (human) (UniProt Q14145)", "test": "AlphaScreen; average of three conditions; against wild-type NRF2 isoform 1"}, "[16]": {"target": "KEAP1 (wild-type full-length), His-tagged (human) (UniProt Q14145)", "test": "AlphaScreen; 153.6 nM FLAG-NRF2, 150 nM His-KEAP1; signal against NRF2 only"}, "[17]": {"target": "KEAP1 (wild-type full-length), His-tagged (human) (UniProt Q14145)", "test": "AlphaScreen; mean over 9.6, 19.2 and 38.4 nM NRF2; 150 nM His-KEAP1; against wild-type NRF2 isoform 1"}, "[18]": {"target": "KEAP1 (wild-type full-length), His-tagged (human) (UniProt Q14145)", "test": "AlphaScreen; FLAG-NRF2 I86V 9.6 nM, His-KEAP1 150 nM; Rep 1"}, "[19]": {"target": "KEAP1 (wild-type full-length), His-tagged (human) (UniProt Q14145)", "test": "AlphaScreen; FLAG-NRF2 I86V 9.6 nM, His-KEAP1 150 nM; Rep 3"}, "[20]": {"target": "KEAP1 (wild-type full-length), His-tagged (human) (UniProt Q14145)", "test": "AlphaScreen; FLAG-NRF2 I86V 38.4 nM, His-KEAP1 150 nM; Rep 1"}, "[21]": {"target": "KEAP1 (wild-type full-length), His-tagged (human) (UniProt Q14145)", "test": "AlphaScreen; FLAG-NRF2 I86V 38.4 nM, His-KEAP1 150 nM; Rep 3"}, "[22]": {"target": "KEAP1 (wild-type full-length), His-tagged (human) (UniProt Q14145)", "test": "AlphaScreen; FLAG-NRF2 I86V 153.6 nM, His-KEAP1 150 nM; Rep 3"}, "[23]": {"target": "KEAP1 (wild-type full-length), His-tagged (human) (UniProt Q14145)", "test": "AlphaScreen; NRF2 I86V 1228.8 nM, KEAP1 150 nM; signal against NRF2-only control"}, "[24]": {"target": "KEAP1 (wild-type full-length), His-tagged (human) (UniProt Q14145)", "test": "AlphaScreen; NRF2 I86V 19.2 nM, KEAP1 150 nM; relative to wild-type NRF2 isoform 1 (100 %)"}, "[25]": {"target": "KEAP1 (wild-type full-length), His-tagged (human) (UniProt Q14145)", "test": "AlphaScreen; FLAG-NRF2 Q75R 4.8 nM, His-KEAP1 150 nM; Rep 1"}, "[26]": {"target": "KEAP1 (wild-type full-length), His-tagged (human) (UniProt Q14145)", "test": "AlphaScreen; FLAG-NRF2 Q75R 19.2 nM, His-KEAP1 150 nM; Repeat 1"}, "[27]": {"target": "KEAP1 (wild-type full-length), His-tagged (human) (UniProt Q14145)", "test": "AlphaScreen; NRF2 Q75R 76.8 nM, KEAP1 150 nM; signal against NRF2-only control"}},
  "note": "Numbering of substitutions follows the chain as printed. Names and notes keep the numbering of the source.",
  "data": [
    {"binder": "B1", "values": [
      {"measurement": "A-counts", "setting": "[1]", "value": 1160, "unit": "A-counts"},
      {"measurement": "A-counts", "setting": "[2]", "value": 2000, "unit": "A-counts"},
      {"measurement": "A-counts", "setting": "[3]", "value": 1850, "unit": "A-counts"},
      {"measurement": "A-counts", "setting": "[4]", "value": 3090, "unit": "A-counts"},
      {"measurement": "A-counts", "setting": "[5]", "value": 2720, "unit": "A-counts"},
      {"measurement": "A-counts", "setting": "[6]", "value": 1640, "unit": "A-counts"},
      {"measurement": "A-counts", "setting": "[7]", "value": 1980, "unit": "A-counts"},
      {"measurement": "A-counts (NRF2 plus KEAP1)", "setting": "[8]", "value": 429, "unit": "A-counts"},
      {"measurement": "A-counts (NRF2 plus KEAP1)", "setting": "[9]", "value": 1480, "unit": "A-counts"},
      {"measurement": "A-counts (NRF2 plus KEAP1)", "setting": "[10]", "value": 1560, "unit": "A-counts"}
    ]},
    {"binder": "B2", "values": [
      {"measurement": "A-counts", "setting": "[11]", "value": 1570, "unit": "A-counts"},
      {"measurement": "A-counts", "setting": "[12]", "value": 1690, "unit": "A-counts"},
      {"measurement": "A-counts", "setting": "[13]", "value": 1560, "unit": "A-counts"},
      {"measurement": "A-counts", "setting": "[14]", "value": 1260, "unit": "A-counts"},
      {"measurement": "Reported Value (reduction in binding)", "setting": "[15]", "value": 30.2, "unit": "%"},
      {"measurement": "S/N", "setting": "[16]", "value": 1.7},
      {"measurement": "Avg. Reduction in Binding", "setting": "[17]", "value": 30.2, "unit": "%"}
    ]},
    {"binder": "B3", "values": [
      {"measurement": "A-counts (NRF2 plus KEAP1)", "setting": "[18]", "value": 2730, "unit": "A-counts"},
      {"measurement": "A-counts (NRF2 plus KEAP1)", "setting": "[19]", "value": 2860, "unit": "A-counts"},
      {"measurement": "A-counts (NRF2 plus KEAP1)", "setting": "[20]", "value": 3010, "unit": "A-counts"},
      {"measurement": "A-counts (NRF2 plus KEAP1)", "setting": "[21]", "value": 2930, "unit": "A-counts"},
      {"measurement": "A-counts (NRF2 plus KEAP1)", "setting": "[22]", "value": 2500, "unit": "A-counts"},
      {"measurement": "S/N", "setting": "[23]", "value": 0.9},
      {"measurement": "Binding Percentage", "setting": "[24]", "value": 97.8, "unit": "%"}
    ]},
    {"binder": "B4", "values": [
      {"measurement": "A-counts (NRF2 plus KEAP1)", "setting": "[25]", "value": 826, "unit": "A-counts"},
      {"measurement": "A-counts (NRF2 plus KEAP1)", "setting": "[26]", "value": 1300, "unit": "A-counts"},
      {"measurement": "S/N", "setting": "[27]", "value": 1.8}
    ]}
  ]
}
